Data: patent US6991790 (Genentech, dated 2006)

How the values were obtained:
[1] = target: T1, recombinant preparation of soluble MAC-1 (UniProt P11215 17-1104; P05107 23-700); assay: MAC-1 capture ELISA titer over UV concentration; freeze/thaw study, F5, held at 5° C. (control)
[2] = target: T1, recombinant preparation of soluble MAC-1; assay: MAC-1 capture ELISA titer over UV concentration; F3 after three freeze/thaw cycles -70° C. to 5° C.
[3] = target: T1, recombinant preparation of soluble MAC-1; assay: MAC-1 capture ELISA titer over UV concentration; F5 after three freeze/thaw cycles -20° C. to 5° C.
[4] = target: T1, recombinant preparation of soluble MAC-1; assay: MAC-1 capture ELISA titer over UV concentration; freeze/thaw study, F1, held at 5° C. (control)
[5] = target: T1, recombinant preparation of soluble MAC-1; assay: MAC-1 capture ELISA titer over UV concentration; F2 after three freeze/thaw cycles -70° C. to 5° C.
[6] = target: T1, recombinant preparation of soluble MAC-1; assay: MAC-1 capture ELISA titer over UV concentration; F2 after three freeze/thaw cycles -20° C. to 5° C.
[7] = target: T1, recombinant preparation of soluble MAC-1; assay: MAC-1 capture ELISA titer over UV concentration; F5 after three freeze/thaw cycles -70° C. to 5° C.
[8] = target: T1, recombinant preparation of soluble MAC-1; assay: MAC-1 capture ELISA titer over UV concentration; freeze/thaw study, F4, held at 5° C. (control)
[9] = target: T1, recombinant preparation of soluble MAC-1; assay: MAC-1 capture ELISA titer over UV concentration; F1 after three freeze/thaw cycles -20° C. to 5° C.
[10] = target: T1, recombinant preparation of soluble MAC-1; assay: MAC-1 capture ELISA titer over UV concentration; F4 after three freeze/thaw cycles -70° C. to 5° C.
[11] = target: T1, recombinant preparation of soluble MAC-1; assay: MAC-1 capture ELISA titer over UV concentration; F4 after three freeze/thaw cycles -20° C. to 5° C.
[12] = target: T1, recombinant preparation of soluble MAC-1; assay: MAC-1 capture ELISA titer over UV concentration; freeze/thaw study, F3, held at 5° C. (control)
[13] = target: T1, recombinant preparation of soluble MAC-1; assay: MAC-1 capture ELISA titer over UV concentration; F3 after three freeze/thaw cycles -20° C. to 5° C.
[14] = target: T1, recombinant preparation of soluble MAC-1; assay: MAC-1 capture ELISA titer over UV concentration; freeze/thaw study, F2, held at 5° C. (control)
[15] = target: T1, recombinant preparation of soluble MAC-1; assay: MAC-1 capture ELISA titer over UV concentration; F1 after three freeze/thaw cycles -70° C. to 5° C.

B1: recombinant humanized anti-CD18 antibody (rhuMAb CD18) (antibody, V domains shown)
VH: EVQLVESGGGLVQPGGSLRLSCATSGYTFTEYTMHWMRQAPGKGLEWVAGINPKNGGTSHNQRFMDRFTISVDKSTSTAYMQMNSLRAEDTAVYYCARWRGLNYGFDVRYFDVWGQGTLVTVSS
VL: DIQMTQSPSSLSASVGDRVTITCRASQDINNYLNWYQQKPGKAPKLLIYYTSTLHSGVPSRFSGSGSGTDYTLTISSLQPEDFATYYCQQGNTLPPTFGQGTKVEIKR
notes: Tested as an F(ab')2 of two light and two heavy chains linked by disulfide bonds, made in E. coli; It was humanized from murine muMAb H52; It says the antibody is directed to the CD18 chain of MAC-1; also called anti-CD18 F(ab')2 antibody; humanized H52 antibody
Specific Activity (MAC-1/UV) [1]: 1.14 ratio (MAC-1/UV)
Specific Activity (MAC-1/UV) [2]: 1.1 ratio (MAC-1/UV)
Specific Activity (MAC-1/UV) [3]: 1.09 ratio (MAC-1/UV)
Specific Activity (MAC-1/UV) [4]: 1.05 ratio (MAC-1/UV)
Specific Activity (MAC-1/UV) [5]: 1.13 ratio (MAC-1/UV)
Specific Activity (MAC-1/UV) [6]: 1.2 ratio (MAC-1/UV)
Specific Activity (MAC-1/UV) [7]: 1.09 ratio (MAC-1/UV)
Specific Activity (MAC-1/UV) [8]: 0.98 ratio (MAC-1/UV)
Specific Activity (MAC-1/UV) [9]: 1 ratio (MAC-1/UV)
Specific Activity (MAC-1/UV) [10]: 1.06 ratio (MAC-1/UV)
Specific Activity (MAC-1/UV) [11]: 1.09 ratio (MAC-1/UV)
Specific Activity (MAC-1/UV) [12]: 1.1 ratio (MAC-1/UV)
Specific Activity (MAC-1/UV) [13]: 1.08 ratio (MAC-1/UV)
Specific Activity (MAC-1/UV) [14]: 1.14 ratio (MAC-1/UV)
Specific Activity (MAC-1/UV) [15]: 1.03 ratio (MAC-1/UV)
